# Source: patent US20240384250A1, “FIBROBLAST GROWTH FACTOR 23 MODULATING COMPOUNDS” (THE UAB RESEARCH FOUNDATION, priority 2021, published 2024)
# “Also recorded” adds a separate entry of the source. Like-named read-outs stand apart in the source and are kept apart here.
# T1: FGF21 (Homo sapiens, UniProt Q9NSA1)
# T1 construct: purchased R&D Systems 2539FG025/CF
# T1 sequence (Q9NSA1 29-209): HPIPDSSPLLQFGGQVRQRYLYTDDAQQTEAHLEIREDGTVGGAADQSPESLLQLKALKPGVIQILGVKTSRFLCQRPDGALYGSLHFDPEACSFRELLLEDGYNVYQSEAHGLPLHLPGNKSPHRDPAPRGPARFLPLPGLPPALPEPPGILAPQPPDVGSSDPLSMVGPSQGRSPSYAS
# T2: FGFR1c (Homo sapiens, UniProt P11362)
# T2 construct: Fc-coupled FGFR ectodomains were immobilized on protein A/G beads; purchased R&D Systems 658FR050
# T2 sequence (P11362 22-376 limits assumed): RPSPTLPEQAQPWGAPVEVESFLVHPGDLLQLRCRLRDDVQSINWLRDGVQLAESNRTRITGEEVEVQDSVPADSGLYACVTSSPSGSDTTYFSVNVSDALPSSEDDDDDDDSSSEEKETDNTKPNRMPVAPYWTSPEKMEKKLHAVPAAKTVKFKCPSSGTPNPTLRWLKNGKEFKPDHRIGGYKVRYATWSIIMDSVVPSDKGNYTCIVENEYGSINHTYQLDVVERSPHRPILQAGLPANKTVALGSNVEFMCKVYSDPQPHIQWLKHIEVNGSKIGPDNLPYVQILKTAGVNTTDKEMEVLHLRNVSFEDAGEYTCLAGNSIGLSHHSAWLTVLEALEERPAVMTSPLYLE
# T3: FGF2 binding to FGFR1c (Homo sapiens, UniProt P11362)
# T3 construct: a chimeric protein consisting of the FGFR1 ectodomain and the Fc region of a human IgG; purchased R&D Systems 233-FB/CF; 658FR050
# T3 sequence (P11362 22-376 limits assumed): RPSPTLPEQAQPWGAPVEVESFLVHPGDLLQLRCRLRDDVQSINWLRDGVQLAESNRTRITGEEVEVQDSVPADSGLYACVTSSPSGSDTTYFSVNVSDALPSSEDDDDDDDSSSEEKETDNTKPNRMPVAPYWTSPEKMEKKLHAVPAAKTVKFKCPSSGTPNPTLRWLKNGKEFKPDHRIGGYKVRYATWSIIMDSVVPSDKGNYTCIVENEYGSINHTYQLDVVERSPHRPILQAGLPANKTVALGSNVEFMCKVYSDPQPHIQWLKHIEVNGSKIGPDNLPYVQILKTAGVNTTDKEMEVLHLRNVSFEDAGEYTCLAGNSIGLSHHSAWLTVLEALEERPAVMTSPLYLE
# T4: FGF8b binding to FGFR1c (Homo sapiens, UniProt P11362)
# T4 construct: a chimeric protein consisting of the FGFR1 ectodomain and the Fc region of a human IgG; purchased R&D Systems 423-F8/CF; 658FR050
# T4 sequence (P11362 22-376 limits assumed): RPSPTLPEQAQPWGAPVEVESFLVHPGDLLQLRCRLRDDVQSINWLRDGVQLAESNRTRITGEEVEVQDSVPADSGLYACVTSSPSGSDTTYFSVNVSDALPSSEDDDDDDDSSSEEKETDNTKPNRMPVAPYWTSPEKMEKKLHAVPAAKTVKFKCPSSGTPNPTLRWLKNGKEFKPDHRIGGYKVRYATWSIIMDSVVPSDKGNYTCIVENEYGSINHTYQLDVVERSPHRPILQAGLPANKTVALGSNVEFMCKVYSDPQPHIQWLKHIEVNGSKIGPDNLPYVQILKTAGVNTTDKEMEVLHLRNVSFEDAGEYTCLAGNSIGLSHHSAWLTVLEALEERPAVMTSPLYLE
# Tests used:
# [1] = target: T5, FGF19 (Homo sapiens, UniProt O95750); test: Co-immunoprecipitation of FGF with FLAG-tagged sKL on anti-FLAG beads; assay type: binding
# T5 construct: purchased R&D Systems 969FG025/CF
# Method: (§1) To study the interaction between FLAG-tagged sKL and different FGF isoforms, co-immunoprecipitation studies were conducted. FLAG beads (A2220, Sigma-Aldrich) were used at 50 ul of 50% stock slurry per sample. Beads were washed 5× with activity buffer (50 mM Tris [pH 7.4], 200 mM NaCl, 0.01% Tween 20, Sigma-Aldrich). Bead spin-down assays were all performed for 2 minutes at 5000 g. Fifty microliters of a 50% slurry of beads per sample was resuspended in 1 ml of activity buffer in a 1.5-ml snap cap tube. One microgram of FLAG-tagged sKL or Carboxy-terminal bacterial alkaline phosphatase (BAPC; P7457, Sigma-Aldrich) was incubated with the beads for 1 hour on a bead rotator. Beads were then pelleted at 5000 g for 2 minutes and washed 5× with activity buffer. Beads were resuspended in 1 ml of activity buffer and samples with 500 ng of FGF. Beads were incubated for 1 hour on a tube rotator, and beads were pelleted and washed as before. One hundred microliters of I× Laemmli sample buffer (1610737, Bio-Rad) with 1.42 M 2-mercaptoethanol was added, and samples were boiled for 5 minutes and analyzed using sodium dodecylsulfate-polyacrylamide gel electrophoresis (SDS-PAGE) and Western blotting, as described below herein.
# (§2) The sample (20 μl) was loaded onto Mini-PROTEAN TGX Precast Gel 4-20% for experiments with <9 samples (4568094, Bio-Rad) or Criterion TGX Precast Gel 4-20% (5678094, Bio-Rad) for experiments with >9 samples. Gels were run in 1× Tris/Glycine/SDS buffer (1610732, Bio-Rad) at 150 V and stopped when the sample dye reached the end of the gel. Gels were removed and electrotransferred via a semi-dry cassette (1703940, Bio-Rad) in I× Tris/Glycine buffer (1610734, Bio-Rad) with 20% methanol. Gels were transferred onto polyvinylidene diflouride membranes (IPVH00010, Millipore) at 20 V for 1 hour. Membranes were then blocked in 5% dried milk with 0.5% Tween 20 diluted in Tris-buffered saline (TBST; pH 7.5) for 1 hour and probed with antibodies against specific antigens at 1:1000 in TBST with 5% dried milk. Blots were washed 3× for 5 minutes in TBST and probed with HRP-coupled secondary antibodies against specific species at 1:10,000 in TBST with 5% dried milk. Membranes were imaged on the SRX-101A X-ray film developer (Konica Minolta).
# [2] = target: T1, FGF21; test: as above; assay type: binding
# Method: as §1, §2
# [3] = target: T2, FGFR1c; test: Plate-based binding assay, FGFR1c coated, FLAG-sKL detected with anti-FLAG HRP; conditions: for binding of FLAG-sKL to coated FGFR1c: 40 ng FGFR1c coated, 80 ng FLAG-sKL, compared with FGFR4 and FGF23
# Method: (§3) Proteins were coated on 96-well plates (MaxiSorp; 439454, Thermo Fisher Scientific), and proteins were added to wells in 100 μl of enzyme-linked immunosorbent assay (ELISA) coating buffer (E107, Bethyl Laboratories) with a lid placed overtop and incubated at 4° C. overnight. Plates were washed 5× with 350 μl of assay buffer (50 mM Tris [pH 7.4], 200 mM NaCl, 0.01% Tween 20) on a 50 TS microplate washer (BioTek). Plates were blocked for 1 hour in 200 μl of assay buffer with 0.5% BSA. Plates were washed as before, and proteins were incubated on plates in 100 μl of assay buffer with 0.5% BSA. Proteins or heparin was incubated in orders described in the respective figure legends. Assays using FLAG-tag-based detection were incubated with anti-FLAG coupled to HRP at 1:20,000, and assays using Fc detection were incubated with anti-human Fc coupled to HRP at 1:10,000. Plates were washed as above, and 100 μl of 3,3′,5,5′-tetramethylbenzidine (TMB) substrate (E102, Bethyl Laboratories) was added for 15 to 20 minutes until positive wells developed a dark blue color. Reactions were stopped with ELISA stop solution (E115, Bethyl Laboratories) and analyzed using the Synergy HI plate reader (BioTek) at 450 nm wavelength. […] As a control to remove background absorbance values, wells were coated with an equal amount of BSA to match the amount of protein coated in experimental wells and treated the same as experimental wells. To study the effects of sKL on the binding between paracrine FGFs and FGFRs, plates were run as above except coated with paracrine FGFs. Fc-FGFR1 was preincubated with sKL or vehicle for 60 minutes, and then the combination was added to wells and the assay was run as before.
# [4] = target: T3, FGF2 binding to FGFR1c; test: Plate-based binding of paracrine FGF to Fc-FGFR1c with heparin and/or sKL; conditions: Fc-FGFR1c preincubated with FLAG-sKL, absence and presence of heparin
# Method: as §3
# [5] = target: T4, FGF8b binding to FGFR1c; test: as above; conditions: Fc-FGFR1c preincubated with 400 ng FLAG-sKL
# Method: as §3
# T5 sequence (O95750 25-216): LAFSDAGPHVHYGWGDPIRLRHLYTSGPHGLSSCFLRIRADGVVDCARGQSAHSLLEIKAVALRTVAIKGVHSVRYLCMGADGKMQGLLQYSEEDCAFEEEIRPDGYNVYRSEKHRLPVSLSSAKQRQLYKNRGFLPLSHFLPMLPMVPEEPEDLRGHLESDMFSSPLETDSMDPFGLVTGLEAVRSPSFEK
molecule,measurement,setting,value
"sKL: recombinant soluble α-klotho ectodomain, mouse aa 35-982 and human aa 34-981, FLAG- or Strep/His-tagged, purified from HEK293 cells (protein, left off: small tags and cut ends, recombinant soluble α-klotho ectodomain, mouse aa 35-982 and human aa 34-981, FLAG- or Strep/His-tagged, purified from HEK293 cells) EPGDGAQTWARFSRPPAPEAAGLFQGTFPDGFLWAVGSAAYQTEGGWQQHGKGASIWDTFTHHPLAPPGDSRNASLPLGAPSPLQPATGDVASDSYNNVFRDTEALRELGVTHYRFSISWARVLPNGSAGVPNREGLRYYRRLLERLRELGVQPVVTLYHWDLPQRLQDAYGGWANRALADHFRDYAELCFRHFGGQVKYWITIDNPYVVAWHGYATGRLAPGIRGSPRLGYLVAHNLLLAHAKVWHLYNTSFRPTQGGQVSIALSSHWINPRRMTDHSIKECQKSLDFVLGWFAKPVFIDGDYPESMKNNLSSILPDFTESEKKFIKGTADFFALCFGPTLSFQLLDPHMKFRQLESPNLRQLLSWIDLEFNHPQIFIVENGWFVSGTTKRDDAKYMYYLKKFIMETLKAIKLDGVDVIGYTAWSLMDGFEWHRGYSIRRGLFYVDFLSQDKMLLPKSSALFYQKLIEKNGFPPLPENQPLEGTFPCDFAWGVVDNYIQVDTTLSQFTDLNVYLWDVHHSKRLIKVDGVVTKKRKSYCVDFAAIQPQIALLQEMHVTHFRFSLDWALILPLGNQSQVNHTILQYYRCMASELVRVNITPVVALWQPMAPNQGLPRLLARQGAWENPYTALAFAEYARLCFQELGHHVKLWITMNEPYTRNMTYSAGHNLLKAHALAWHVYNEKFRHAQNGKISIALQADWIEPACPFSQKDKEVAERVLEFDIGWLAEPIFGSGDYPWVMRDWLNQRNNFLLPYFTEDEKKLIQGTFDFLALSHYTTILVDSEKEDPIKYNDYLEVQEMTDITWLNSPSQVAVVPWGLRKVLNWLKFKYGDLPMYIISNGIDDGLHAEDDQLRVYYMQNYINEALKAHILDGINLCGYFAYSFNDRTAPRFGLYRYAADQFEPKASMKHYRKIIDSNGFPGPETLERFCPEEFTVCTECSFFHTRKS",FGF19 co-precipitation with immobilized FLAG-sKL,[1],did not bind
same,FGF19 co-precipitation with immobilized FLAG-sKL,[1]; listed as FLAG-sKL,does not binds FGF19
same,FGF21 co-precipitation with immobilized FLAG-sKL,[2],did not bind
same,FGF21 co-precipitation with immobilized FLAG-sKL,[2]; listed as FLAG-sKL,does not binds FGF21
same,binding of FLAG-sKL to coated FGFR1c,[3],highest affinity
same,binding of FLAG-sKL to coated FGFR1c,[3]; listed as FLAG-sKL,highest affinity; also recorded: bound FGFR1c
same,"FGFR1c binding, protein from HEK293 lysates instead of supernatants",[3]; 200 ng FGFR1c coated,smaller increase
same,binding of FGFR1c to FGF2 in the presence of sKL,[4],reduced; also recorded: this effect did not occur in the presence of sKL
same,binding of FGFR1c to FGF2 in the presence of sKL,[4]; listed as FLAG-sKL,significantly reduced
same,binding of FGFR1c to FGF8b in the presence of sKL,[5],reduced the binding
